Test results from patent US9057734B2, “Optogenetic probes for measuring membrane potential” (President and Fellows of Harvard College, priority 2010, dated 2015).
“Also recorded” adds a separate entry of the source.

Experiments:
[1] = tested on: E. coli; assay: Chemical perturbation of fluorescence flashing of E. coli expressing PROPS; type: cell-based; conditions: 20 μg/mL
Text: PROPS was expressed in E. coli, the cells were immobilized on a glass coverslip, and imaged in an inverted epifluorescence microscope while gently flowing minimal medium at pH 7 over the cells. […] The flashes occurred simultaneously (to within the 10 ms imaging resolution) and homogeneously over the extent of a cell. Flashes were uncorrelated between neighboring cells.
Flashing cells were subjected to chemical perturbations in an effort to deduce the mechanism of the voltage changes. In unstirred medium in a sealed chamber, the flashing ceased over ˜15 minutes; but re-started upon addition of freshly oxygenated medium. Removal of oxygen from the medium using Oxyrase also reversibly eliminated flashing. From these experiments it was concluded that flashing requires aerobic respiration. Under continuous gentle flow of aerated minimal medium, cells flashed continuously for >1 hr. Cells stored in minimal media for several days at 4° C. started flashing when warmed to room temperature.
Flashing was highly sensitive to pHo, occurring only between pH 7 and 9. Flashing frequencies increased and on-time decreased at lower pH. Flashing was more likely to be periodic at lower pH. Extremes of pH (<6 or >9.5) irreversibly eliminated flashing, causing cells to enter the bright state in an abrupt transition.

[2] = Spectroscopic characterization of purified Arch WT and D95N; type: physicochemical
Method: FIGS. 17A-17C show pH-dependent spectra of Arch 3 WT and D95N. […] At neutral pH, Arch absorbed maximally at 558 nm. Fluorescence emission (dashed line) was recorded on 2 μM protein solubilized in 1% DM, with λexc=532 nm. […] The absorption maximum was at 585 nm. […] Singular Value Decomposition of absorption spectra between 400-750 nm was used to calculate the fraction of the SB in the protonated state as a function of pH. The result was fit to a Hill function to determine the pKa of the SB.
Arch and its D95N mutant were expressed and purified from E. coli, following Bergo, V., et al. (Conformational changes detected in a sensory rhodopsin II-transducer complex. J. Biol. Chem. 278, 36556-36562 (2003)). Briefly, E. coli (strain BL21, pet28b plasmid) was grown in 1 L of LB with 100 μg/mL kanamycin, to an O.D 600 of 0.4 at 37° C. All-trans retinal (5 μM) and inducer (IPTG 0.5 mM) were added and cells were grown for an additional 3.5 hours in the dark. Cells were harvested by centrifugation and resuspended in 50 mM Tris, 2 mM MgCl2 at pH 7.3 and lysed with a tip sonicator for 5 minutes. The lysate was centrifuged and the pellet was resuspended in PBS supplemented with 1.5% dodecyl maltoside (DM). The mixture was homogenized with a glass/teflon Potter Elvehjem homogenizer and centrifuged again. The supernatant was concentrated and washed using a centricon 30k MWCO filter to a final volume of 3 mL.
The absorption spectra of purified Arch 3 WT and D95N were determined using an Ocean Optics USB4000 spectrometer with a DT-MINI-2-GS light source. Absorption spectra, for Arch 3 WT and D95N, were measured as a function of pH between pH 6 and 11. To determine the fluorescence emission spectra, proteins in a quartz cuvette were illuminated with the uncollimated beam of a 100 mW, 532 nm laser (Dragon Lasers, 532GLM100) or a 25 mW, 633 nm HeNe laser (Spectra-Physics). Scattered laser light was blocked with a 532 nm Raman notch filter (Omega Optical, XR03) or a 710/100 emission filter (Chroma), and fluorescence was collected perpendicular to the illumination with a 1000 micron fiber, which passed the light to an Ocean Optics QE65000 spectrometer. Spectra were integrated for 2 seconds.
The fluorescence quantum yields of Arch 3 WT and D95N were determined by comparing the integrated emission intensity to emission of a sample of the dye ALEXA FLUOR® 647 Conjugate. Briefly, the concentrations of micromolar solutions of dye and protein were determined using a visible absorption spectrum. […] The fluorescence emission spectra of dye and protein samples were measured with 633 nm excitation. The quantum yield was then determined by the formula
where Fl is the integrated fluorescence from 660 to 760 nm, ε is the extinction coefficient at 633 nm and c is the concentration.

[3] = tested on: HEK-293 cells; assay: Fluorescence versus membrane potential under whole-cell voltage clamp (ramp, step, frequency response, noise); type: cell-based, human
Method: Fluorescence of Arch 3 in HEK 293 cells was readily imaged in an inverted fluorescence microscope with red illumination (λ=640 nm, I=540 W/cm^2), a high numerical aperture objective, a Cy5 filter set, and an EMCCD camera. […] Cells not expressing Arch were not fluorescent.
HEK-293 cells were grown at 37° C., 5% CO2, in DMEM supplemented with 10% FBS and penicillin-streptomycin. Plasmids were transfected using LIPOFECTAMINE™ and PLUS reagent (Invitrogen) following the manufacturer's instructions, and assayed between 48-72 hours later. The day before recording, cells were re-plated onto glass-bottom dishes (MatTek) at a density of ˜5000 cells/cm^2.
The concentration of endogenous retinal in the HEK cells was not known, so the cells were supplemented with retinal by diluting stock retinal solutions (40 mM, DMSO) in growth medium to a final concentration of 5 μM, and then placing the cells back in the incubator for 1-3 hours. All imaging and electrophysiology were performed in Tyrode's buffer (containing, in mM: 125 NaCl, 2 KCl, 3 CaCl2, 1 MgCl2, 10 HEPES, 30 glucose pH 7.3, and adjusted to 305-310 mOsm with sucrose). Only HEK cells having reversal potentials between −10 and −40 mV were included in the analysis.
Simultaneous fluorescence and whole-cell patch clamp recordings were acquired on a home-built, inverted epifluorescence microscope at room temperature. A diode laser operating at 100 mW, 640 nm (CrystaLaser, DL638-100-O) provided wide-field illumination at an intensity typically between 500-2000 W/cm^2. To minimize background signal from out-of-focus debris, illumination was often performed in through-the-objective total internal reflection fluorescence (TIRF) mode. Fluorescence emission was collected using a 60×, 1.45 NA oil immersion objective (Olympus), and separated from scattered excitation using a 660-760 nm bandpass emission filter (Chroma). For fast imaging of dynamic fluorescence responses and action potentials, images were acquired on an Andor iXon^+ 860 camera operating at up to 2,000 frames/s (using a small region of interest and pixel binning). Slower images with higher spatial resolution were acquired on an Andor iXon^+ 897 EMCCD. Custom software written in LabView (National Instruments) was used to synchronize illumination, collection of images, recording of membrane potential and cell current, and application of electrical stimuli to the cell.
Filamented glass micropipettes (WPI) were pulled to a tip resistance of 3-10 MΩ, fire polished, and filled with internal solution (containing, in mM: 125 Potassium gluconate, 8 NaCl, 0.6 MgCl2, 0.1 CaCl2, 1 EGTA, 10 HEPES, 4 Mg-ATP, 0.4 Na-GTP, pH 7.3; adjusted to 295 mOsm with sucrose). The micropipettes were positioned with a Burleigh PCS 5000 micromanipulator. Whole-cell, voltage clamp recordings were acquired using an AxoPatch 200B amplifier (Molecular Devices), filtered at 2 kHz with the internal Bessel filter, and digitized with a National Instruments PCIE-6323 acquisition board at 10 kHz. Ambient 60 Hz noise was removed using a HumBug Noise Eliminator (AutoMate Scientific). For experiments requiring rapid modulation of transmembrane potential, series resistance and whole-cell capacitance were predicted to 95% and corrected to ˜50%. Electrical stimuli were generated using the PCIE-6323 acquisition board and sent to the AXOPATCH™, which then applied these signals in either constant current or constant voltage mode.
To measure fluorescence as a function of membrane potential, a triangle wave was applied, with amplitude from −150 mV to +150 mV and period 12 s, with video recording at 100 ms per frame. A pixel weight matrix was calculated according to Eq. S2 and applied to the movie images to generate a fluorescence number for each frame. These fluorescence values were divided by their minimum value (at V=−150 mV). The result is plotted as a function of Vin FIGS. 7 and 8. […]

[4] = tested on: HEK cells; assay: Photocurrents under 640 nm illumination in voltage-clamped cells; type: cell-based, human; conditions: illumination at 640 nm
Method: Measurements of photocurrents were performed on HEK cells held in voltage clamp at 0 mV while being exposed to brief (200 ms) pulses of illumination at 640 nm at an intensity of 1800 W/cm^2.

[5] = tested on: neurons; assay: Light-induced photocurrent and perturbation of membrane potential in neurons; type: cell-based, rat; conditions: 640 nm, 1800 W/cm2
Text: Under illumination conditions typically used for imaging neural activity (I=1800 W/cm2 in total internal reflection (TIR) mode), the light-induced outward photocurrent was typically 10 pA in neurons expressing Arch 3 WT. Under current-clamp conditions this photocurrent shifted the resting potential of the neurons by up to −20 mV. For neurons near their activation threshold, this photocurrent could suppress firing (FIG. 9A), so we explored the non-pumping variant D95N as a voltage indicator in neurons.
Whole-cell current clamp recordings were obtained from mature neurons under the same conditions used for HEK cells recordings. Series resistance and pipette capacitance were corrected. Only neurons having resting potentials between −50 and −70 mV were used in the analysis.

Molecule	effect on blinking [1]	ε633 ([2]; calibrated assuming peak extinction coefficient of Bacteriorhodopsin, 63,000 M^−1 cm^−1)	QY ([2]; comparison to Alexa 647, excitation at 633 nm)	comparison with Arch 3 WT [3]	voltage steps resolved/reported ([3]; HEK cells) [mV]	fast component of step response, time ([3]; step response) [μs]	response time to a step in membrane potential ([3]; steps between −70 mV and +30 mV) [ms]	increase of fluorescence (fold/factor) between −150 mV and +150 mV ([3]; whole-cell voltage clamp)	photocurrent / photoinduced proton pumping [4]	photocurrent / photoinduced proton pumping ([4]; listed as Arch 3 D95N)	effect of illumination on membrane potential [5]
N#CC(C#N)=NNc1cccc(Cl)c1 [CCCP, Carbonyl cyanide 3-chlorophenylhydrazone]	rapidly and irreversibly eliminated the blinking	–	–	–	–	–	–	–	–	–	–
Arch D95N: D95N mutant of Archaerhodopsin 3 without photocurrent, voltage indicator (protein, UniProt P96787 7-258, looked up, variant D95N) Archaerhodopsin-3: QAGYDLLGDGRPETLWLGIGTLLMLIGTFYFLVRGWGVTDKDAREYYAVTILVPGIASAAYLSMFFGIGLTEVTVGGEMLDIYYARYANWLFTTPLLLLDLALLAKVDRVTIGTLVGVDALMIVTGLIGALSHTAIARYSWWLFSTICMIVVLYFLATSLRSAAKERGPEVASTFNTLTALVLVLWTAYPILWIIGTEGAGVVGLGIETLLFMVLDVTAKVGFGFILLRSRAILGDTEAPEPSAGADVSAAD	–	37,500 M^−1cm^−1	4 × 10^−4	more sensitive and brighter than Arch 3 WT, but had a slower response	10	< 500	40	3	no photocurrent; also recorded: eliminated the photocurrent	lacks photoinduced proton pumping	no effect of illumination on spiking or resting potential; also recorded: did not perturb membrane potential
